{"source": "patent US4746508A", "about": "“Drug administration” (Beth Israel Hospital Assn., priority 1984, dated 1988)", "key": {"[1]": {"experiment": "HPLC k' factor value (hydrophobicity) of unconjugated steroid", "format": "physicochemical", "settings": "octadecylsilane column, 75% methanol in water, apparent pH 5.0", "description": "Preferably the steroid used in the invention is characterized in that the unconjugated derivative of the steroid is retained on a hydrophobic column for a length of time sufficient to produce a k' factor value of at least about 4, the k' factor value being obtained by subjecting a monomeric solution of 1 mg/ml of such steroid derivative to high-performance liquid column chromatography at 3,000 psi, using a 250×4.6 mm column having octadecylsilane-coated 5 μm silica particles as the stationary phase and a mobile phase, delivered at 1.0 ml/min., consisting of 75% methanol in ater, v/v, buffered with 0.005M KH2 PO4 /H3 PO4 to give an apparent pH value, as measured using a glass electrode, of 5.0, the k' factor value being defined by [formula] where t0 is the retention time in the column of the solvent front and tr is the retention time in the column of the steroid derivative as measured by obtaining the elution profile of the steroid derivative by absorbance at 210 nm.\nThe structure of the steroid molecule affects its chemical properties and thus its functioning as a drug transporting molecule. We believe that all of the steroid molecules used in the invention facilitate transport by self-associating to form reversed micelles within the membrane across which the drug is being transported; these reversed micelles, it is believed, function as pores, allowing the drug to pass through. A measure of a given steroid molecule's ability to form such reversed micelles is the hydrophobicity of the unconjugated form of the molecule, a property which can be quantified using the k' factor value, which is computed by observing the steroid's retention time in a high-performance liquid chromatography (HPLC) column under the conditions described above. As mentioned above, the k' value of the unconjugated derivative of the steroid should be at least about 4 for the steroid to be suitable in the therapeutic compositions of the invention.\nThe k' and CMT of the steroids used in the compositions of the invention are influenced by whether the steroid is conjugated at C21 and, if so, by the nature of the conjugating group. Additionally, a polar group at position 16 is essential for solubility (See position E on formula 1). Because the k' factor value is influenced by the polarity of any conjugating group, unconjugated derivatives must be used in numerical comparisons involving steroids which are conjugated with different groups, or comparisons involving both conjugated and unconjugated steroids. Overall hydrophobicity and k' factor value generally decrease as the polarity of the conjugating group increases. However, such decrease is not a reflection of the hydrophobicity of the steroid nucleus. […]"}, "[2]": {"settings": "in vivo", "experimental": "Corticotropin releasing-factor (CRF, a hormone of MW 4,000) (Dr. George Chrousos, National Institute of Health, Bethesda, MD) was dissolved in 0.15 NaCl and mixed with the 2% solution of sodium tauro-24,25-dihydrofusidate. CRF was also prepared without adjuvant. Two sheep were administered 350 mg ketamine intravenously and a total of 460 μg of CRF as a liquid, by drops into each side of the nose of the sheep at time 0. The dose of CRF was approximately 10 μg/kg body weight."}, "[3]": {"experiment": "Intranasal administration of proinsulin to sheep (insulin RIA adjusted for cross-reactivity)", "format": "in vivo", "settings": "for Proinsulin (μU/ml above baseline): Sheep 196 Study 25, 1.5 mg into each nostril", "description": "Commercially available proinsulin (Eli Lilly & Co., Indianapolis, Ind.) was mixed with the sodium tauro-24,25-dihydrofusidate solution or in 0.15M NaCl, pH 7.6 to give a final concentration of 6 mg/ml of proinsulin and 1% (w/v) sodium tauro-24,25-dihydrofusidate. Sheep were administered by nasal drops 1.5 mg (250 μl) of the solution into each nostril at time 0. Sheep 25 was administered proinsulin without adjuvant as described above."}}, "data": [{"molecule": "CC(=O)OC1CC2(C)C(CC(O)C3C4(C)CCC(OC(C)=O)C(C)C4CCC32C)C1=C(CCC=C(C)C)C(=O)O", "note": "(stereo not drawn) [3-acetoxyl-fusidic acid]", "values": [{"measurement": "k' factor value", "setting": "[1]", "value": 26.4}]}, {"molecule": "CC(=O)O[C@H]1C[C@@]2(C)[C@@H](C[C@@H](O)[C@H]3[C@@]4(C)CC[C@@H](O)[C@@H](C)[C@@H]4CC[C@@]32C)/C1=C(\\CCC=C(C)C)C(=O)O", "note": "[fusidic acid, reference compound]", "values": [{"measurement": "k' factor value", "setting": "[1]", "value": 20.7}]}, {"molecule": "CC(=O)O[C@H]1C[C@@]2(C)[C@@H](C[C@@H](O)[C@H]3[C@@]4(C)CC[C@@H](O)[C@@H](C)[C@@H]4CC[C@@]32C)/C1=C(\\CCCC(C)C)C(=O)O", "note": "[24,25-dihydrofusidic acid]", "values": [{"measurement": "k' factor value", "setting": "[1]", "value": 27.1}]}, {"molecule": "CC(=O)O[C@@H]1[C@H]2[C@H](C)[C@H](O)CC[C@]2(C)[C@@H]2CC[C@H]3/C(=C(\\CCC=C(C)C)C(=O)O)[C@@H](OC(C)=O)C[C@]3(C)[C@@]2(C)[C@H]1O", "note": "[cephalosporin P1]", "values": [{"measurement": "k' factor value", "setting": "[1]", "value": 9.5}]}, {"molecule": "Corticotropin releasing-factor without tauro-24,25-dihydrofusidate: corticotropin releasing-factor, a hormone of MW 4,000, prepared without adjuvant", "values": [{"measurement": "increase of CRF level", "setting": "[2]", "value": "increased only slightly"}]}, {"molecule": "Proinsulin without sodium tauro-24,25-dihydrofusidate: commercially available proinsulin (Eli Lilly) in 0.15M NaCl, pH 7.6, without adjuvant", "values": [{"measurement": "Proinsulin (μU/ml above baseline)", "setting": "[3]; 0 min", "value": 0, "unit": "μU/ml"}, {"measurement": "Proinsulin (μU/ml above baseline)", "setting": "[3]; 10 min", "value": 2.8, "unit": "μU/ml"}, {"measurement": "Proinsulin (μU/ml above baseline)", "setting": "[3]; 15 min", "value": 28, "unit": "μU/ml"}, {"measurement": "Proinsulin (μU/ml above baseline)", "setting": "[3]; 20 min", "value": 56, "unit": "μU/ml"}, {"measurement": "Proinsulin (μU/ml above baseline)", "setting": "[3]; 30 min", "value": 22, "unit": "μU/ml"}, {"measurement": "Proinsulin (μU/ml above baseline)", "setting": "[3]; 60 min", "value": 0, "unit": "μU/ml"}, {"measurement": "Proinsulin (μU/ml above baseline)", "setting": "[3]; 90 min", "value": 0, "unit": "μU/ml"}, {"measurement": "Proinsulin (μU/ml above baseline)", "setting": "[3]; 120 min", "value": 0, "unit": "μU/ml"}, {"measurement": "Proinsulin (μU/ml above baseline)", "setting": "[3]; 180 min", "value": 0, "unit": "μU/ml"}, {"measurement": "Proinsulin (μU/ml above baseline)", "setting": "[3]; 240 min", "value": 2.8, "unit": "μU/ml"}, {"measurement": "Proinsulin (μU/ml above baseline)", "setting": "[3]; +5 min", "value": 0, "unit": "μU/ml"}, {"measurement": "Proinsulin (μU/ml above baseline)", "setting": "[3]; -15 min", "value": 0, "unit": "μU/ml"}, {"measurement": "absorption of nasally administered proinsulin", "setting": "[3]; sheep, nasal drops", "value": "absorbed at a slower rate and to a much reduced extent"}]}]}
